In this experiment the target is microtubules assembled from fluorescein-modified bovine brain tubulin (α/β-tubulin) (bovine). The experiment can be described thus: cell-based or functional assay.

Take “Glutathione S-Transferase (GST)-tagged γ-Tubulin fusion protein (from UniProt P23258 1-451)”: the average length of MTs after 5 min of polymerization, on γ-tubulin-functionalized gold pads against solution without functionalized microchips was 1.68 micron and the average length of MTs after 10 min of polymerization, on γ-tubulin-functionalized gold pads against solution without functionalized microchips amounted to 3.47 micron.

Source of the values: patent US20110266675A1.
